Experimental data as given in patent US20260297144 (published 2026).

How the values were obtained:
C3b [1] = molecular target: T1, C3b (human, UniProt P01024); assay: SPR steady state, Fc 3-1, 10C
C3b [2] = molecular target: T1, C3b; assay: SPR steady state, Fc 4-1, 10C
C3b [3] = molecular target: T1, C3b; assay: SPR steady state, Fc 2-1, 10C

T1 sequence (P01024 23-667, chain 1 of 2): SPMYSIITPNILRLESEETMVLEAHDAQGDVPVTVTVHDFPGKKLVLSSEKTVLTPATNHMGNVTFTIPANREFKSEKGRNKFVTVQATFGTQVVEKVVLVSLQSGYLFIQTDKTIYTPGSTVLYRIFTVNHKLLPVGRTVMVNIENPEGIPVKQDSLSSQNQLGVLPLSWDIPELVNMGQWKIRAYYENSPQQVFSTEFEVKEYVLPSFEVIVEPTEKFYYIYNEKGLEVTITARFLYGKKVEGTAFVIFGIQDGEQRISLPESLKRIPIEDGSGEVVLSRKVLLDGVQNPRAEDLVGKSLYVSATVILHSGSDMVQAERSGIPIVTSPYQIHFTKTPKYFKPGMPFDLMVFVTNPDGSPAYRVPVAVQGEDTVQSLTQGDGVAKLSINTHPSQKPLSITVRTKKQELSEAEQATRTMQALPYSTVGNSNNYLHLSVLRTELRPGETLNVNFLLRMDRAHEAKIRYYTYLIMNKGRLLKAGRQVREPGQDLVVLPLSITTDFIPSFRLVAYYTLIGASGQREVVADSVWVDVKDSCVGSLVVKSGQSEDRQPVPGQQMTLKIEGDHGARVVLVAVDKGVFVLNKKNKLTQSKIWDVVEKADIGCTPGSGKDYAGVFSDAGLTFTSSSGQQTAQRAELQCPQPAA
T1 sequence (P01024 749-1663, chain 2 of 2): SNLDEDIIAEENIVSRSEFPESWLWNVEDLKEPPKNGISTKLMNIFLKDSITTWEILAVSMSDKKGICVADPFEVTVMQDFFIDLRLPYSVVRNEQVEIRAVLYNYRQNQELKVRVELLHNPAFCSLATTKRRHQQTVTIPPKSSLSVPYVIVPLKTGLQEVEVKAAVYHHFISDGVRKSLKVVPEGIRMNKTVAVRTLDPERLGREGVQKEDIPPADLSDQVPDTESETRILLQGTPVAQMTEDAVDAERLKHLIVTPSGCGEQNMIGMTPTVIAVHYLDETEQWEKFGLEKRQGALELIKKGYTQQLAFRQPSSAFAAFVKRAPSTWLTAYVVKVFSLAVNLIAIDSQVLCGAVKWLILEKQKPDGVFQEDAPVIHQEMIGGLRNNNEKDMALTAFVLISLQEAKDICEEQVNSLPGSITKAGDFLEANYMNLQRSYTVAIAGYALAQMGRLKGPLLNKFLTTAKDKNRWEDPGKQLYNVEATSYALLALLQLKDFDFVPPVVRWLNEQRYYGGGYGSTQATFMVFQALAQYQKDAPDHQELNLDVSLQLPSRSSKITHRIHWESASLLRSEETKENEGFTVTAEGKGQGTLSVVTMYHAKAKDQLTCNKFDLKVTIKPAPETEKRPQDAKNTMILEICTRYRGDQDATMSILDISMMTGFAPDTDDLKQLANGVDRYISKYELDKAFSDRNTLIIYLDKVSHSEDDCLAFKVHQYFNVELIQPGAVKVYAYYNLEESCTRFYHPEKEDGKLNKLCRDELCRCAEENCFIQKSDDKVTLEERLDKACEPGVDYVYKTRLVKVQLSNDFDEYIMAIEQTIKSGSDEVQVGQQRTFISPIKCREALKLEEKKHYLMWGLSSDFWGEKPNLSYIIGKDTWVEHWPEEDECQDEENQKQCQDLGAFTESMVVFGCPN

B1: Sial-moss FH (protein)
chain: EDCNELPPRRNTEILTGSWSDQTYPEGTQAIYKCRPGYRSLGNIIMVCRKGEWVALNPLRKCQKRPCGHPGDTPFGTFTLTGGNVFEYGVKAVYTCNEGYQLLGEINYRECDTDGWTNDIPICEVVKCLPVTAPENGKIVSSAMEPDREYHFGQAVRFVCNSGYKIEGDEEMHCSDDGFWSKEKPKCVEISCKSPDVINGSPISQKIIYKENERFQYKCNMGYEYSERGDAVCTESGWRPLPSCEEKSCDNPYIPNGDYSPLRIKHRTGDEITYQCRNGFYPATRGNTAKCTSTGWIPAPRCTLKPCDYPDIKHGGLYHENMRRPYFPVAVGKYYSYYCDEHFETPSGSYWDHIHCTQDGWSPAVPCLRKCYFPYLENGYNQNYGRKFVQGKSIDVACHPGYALPKAQTTVTCMENGWSPTPRCIRVKTCSKSSIDIENGFISESQYTYALKEKAKYQCKLGYVTADGETSGSITCGKDGWSAQPTCIKSCDIPVFMNARTKNDFTWFKLNDTLDYECHDGYESNTGSTTGSIVCGYNGWSDLPICYERECELPKIDVHLVPDRKKDQYKVGEVLKFSCKPGFTIVGPNSVQCYHFGLSPDLPICKEQVQSCGPPPELLNGNVKEKTKEEYGHSEVVEYYCNPRFLMKGPNKIQCVDGEWTTLPVCIVEESTCGDIPELEHGWAQLSSPPYYYGDSVEFNCSESFTMIGHRSITCIHGVWTQLPQCVAIDKLKKCKSSNLIILEEHLKNKKEFDHNSNIRYRCRGKEGWIHTVCINGRWDPEVNCSMAQIQLCPPPPQIPNSHNMTTTLNYRDGEKVSVLCQENYLIQEGEEITCKDGRWQSIPLCVEKIPCSQPPQIEHGTINSSRSSQESYAHGTKLSYTCEGGFRISEENETTCYMGKWSSPPQCEGLPCKSPPEISHGVVAHMSDSYQYGEEVTYKCFEGFGIDGPAIAKCLGEKWSHPPSCIKTDCLSLPSFENAIPMGEKKDVYKAGEQVTYTCATYYKMDGASNVTCINSRWTGRPTCRDTSCVNPPTVQNAYIVSRQMSKYPSGERVRYQCRSPYEMFGDEEVMCLNGNWTEPPQCKDSTGKCGPPPPIDNGDITSFPLSVYAPASSVEYQCQNLYQLEGNKRITCRNGQWSEPPKCLHPCVISREIMENYNIALRWTAKQKLYSRTGESVEFVCKRGYRLSSRSHTLRTTCWDGKLEYPTCAKR
- Kd (C3b [1]): 42.9 nM
- Kd (C3b [2]): 51 nM
- Kd (C3b [3]): 48.2 nM

B2: Serum derived FH (sd-FH) (protein)
chain: EDCNELPPRRNTEILTGSWSDQTYPEGTQAIYKCRPGYRSLGNVIMVCRKGEWVALNPLRKCQKRPCGHPGDTPFGTFTLTGGNVFEYGVKAVYTCNEGYQLLGEINYRECDTDGWTNDIPICEVVKCLPVTAPENGKIVSSAMEPDREYHFGQAVRFVCNSGYKIEGDEEMHCSDDGFWSKEKPKCVEISCKSPDVINGSPISQKIIYKENERFQYKCNMGYEYSERGDAVCTESGWRPLPSCEEKSCDNPYIPNGDYSPLRIKHRTGDEITYQCRNGFYPATRGNTAKCTSTGWIPAPRCTLKPCDYPDIKHGGLYHENMRRPYFPVAVGKYYSYYCDEHFETPSGSYWDHIHCTQDGWSPAVPCLRKCYFPYLENGYNQNYGRKFVQGKSIDVACHPGYALPKAQTTVTCMENGWSPTPRCIRVKTCSKSSIDIENGFISESQYTYALKEKAKYQCKLGYVTADGETSGSITCGKDGWSAQPTCIKSCDIPVFMNARTKNDFTWFKLNDTLDYECHDGYESNTGSTTGSIVCGYNGWSDLPICYERECELPKIDVHLVPDRKKDQYKVGEVLKFSCKPGFTIVGPNSVQCYHFGLSPDLPICKEQVQSCGPPPELLNGNVKEKTKEEYGHSEVVEYYCNPRFLMKGPNKIQCVDGEWTTLPVCIVEESTCGDIPELEHGWAQLSSPPYYYGDSVEFNCSESFTMIGHRSITCIHGVWTQLPQCVAIDKLKKCKSSNLIILEEHLKNKKEFDHNSNIRYRCRGKEGWIHTVCINGRWDPEVNCSMAQIQLCPPPPQIPNSHNMTTTLNYRDGEKVSVLCQENYLIQEGEEITCKDGRWQSIPLCVEKIPCSQPPQIEHGTINSSRSSQESYAHGTKLSYTCEGGFRISEENETTCYMGKWSSPPQCEGLPCKSPPEISHGVVAHMSDSYQYGEEVTYKCFEGFGIDGPAIAKCLGEKWSHPPSCIKTDCLSLPSFENAIPMGEKKDVYKAGEQVTYTCATYYKMDGASNVTCINSRWTGRPTCRDTSCVNPPTVQNAYIVSRQMSKYPSGERVRYQCRSPYEMFGDEEVMCLNGNWTEPPQCKDSTGKCGPPPPIDNGDITSFPLSVYAPASSVEYQCQNLYQLEGNKRITCRNGQWSEPPKCLHPCVISREIMENYNIALRWTAKQKLYSRTGESVEFVCKRGYRLSSRSHTLRTTCWDGKLEYPTCAKR
- Kd (C3b [1]): 104 nM
- Kd (C3b [2]): 144 nM
- Kd (C3b [3]): 110 nM
